# Laboratory results published in the DeepSol protein solubility set.
# Assay: soluble on expression in E. coli; label from the status in PepcDB or PDB records
row,Sequence,soluble on expression in E. coli
1,SLEEPPKAVELEGLAACEGEYSQKYSTMSPLGSGAFGFVWTAVDKEKNKEVVVKFIKKEKVLEDCWIEDPKLGKVTLEIAILSRVEHANIIKVLDIFENQGFFQLVMEKHGSGLDLFAFIDRHPRLDEPLASYIFRQLVSAVGYLRLKDIIHRDIKDENIVIAEDFTIKLIDFGSAAYLERGKLFYTFCGTIEYCAPEVLMGNPYRGPELEMWSLGVTLYTLVFEENPFCELEETVEAAIHPPYLVSKELMSLVSGLLQPVPERRTTLEKLVTDPWVTQPVNLADYTWEEVCRVNKPESGVLSAASLEMGNRSLSDVAQAQELCGG,not soluble
2,SLEQPGFKLRAVTIHFEASADVDSIEDAVFKAKEAIDRLTAEKGVEVWSLRAVLTPGESVADSLGRVAELEPLVEEEGVFINLGLHNASADDWEAVSGIVESGFFLSFALENGTWEEARSYSKLLHRLADKSPDLAVHIGFNPLGTHILTPYFPLATSPGEQRTVTVALLYPRYLLESFRKGGLQAVIDSMVDAAQLSGEYGKAVAKDVEGSFAGVDLSISPWMEESSLALVEEVGGVRLPEPGFAYGLRLVNEAIAAAASKTGYAVGFNEVQLPVAEDSKLKVRVAELETSARDLLRLSGVCLAGLDMAVIPASLDGVAGLLLEARAYSRAKGSIVGVRLIPLDGVEPGDEVFLKRFGEVPVIPI,soluble
3,SLERSVNGKIQKADIFSVPVSFNANEVTHVDTPQEALAASLNKFGEVNLEYMENLSETGRQELLTQLENRIFYNPMMKNYEIKDRFIAGNVVAKVEWIENYLKDYPDDDASKKSLEALQKAIPEPISFELLDFNLGERWIPVSVYEEFAGYLFEAKAHIHYTESIDEFSVSFEETNANITDRYYVKGEKRGYYGNDLLKHALHNTVPDITKTVQDEEGNDIKVRDAEAIQLADAKINEIRSAFTGWLNEQLPEFKQHLADMYNRKFNCYVRPDYDGSLQSFPFLDLKGLGIPSLYDSQ,not soluble
4,SLGGLKLGDLCRLKGQETNTLQGLGLVVGLQGTGDGDAAPKGRALARMMQLMGGPMAVDAAGRLNIEDVGDAKNVAMVFVSATIPTVGAQQGDVLDVTINAISAKSLDGGYLMLTPMLGPRADNPTVYGMAEGRISVSADSPPTSATIQGGLKMETSVRASYVHDNRITLVIDRDFADFSTAHMIEEEVNSLTSFTIGDRNVSRLASPNHQGTGQDGNIALARAIDQLHVEVVIPPTYRDNPIKFIAFLLDIVIPLSNRGKRVVINEADGVVVIGEDVEIAPVLVTHRNLRIEAGGGGRFVEVGPDGTPAAAKLKSLADALGALDVPTEDLIAIIKTLKAKGDLYGEVIFR,not soluble
5,SLGSQGSGLEQSSFQWSPSGRRTGSLYCRVGIGFHLQIYPDGKVNGSHEANMLSVLEIFAVSQGIVGIRGVFSNKFLAMSKKGKLHASAKFTDDCKFRERFQENSYNTYASAIHRTEKTGREWYVALNKRGKAKRGCSPRVKPQHISTHFLPRFKQSEQPELSFTVTVPEKEG,soluble
6,SLLPDIPEPLKNGTGAIDNNGVIYVGLGTAGTSWYKIDLKKQHKDWERIKSFPGGAREQSVSVFLNDELYVFGGVGKKNSESPLQVYSDVYKYSPVKNTWQKVDTISPVGLTGHTGVKLNETMVLITGGVNEHIFDKYFIDIAAAAADESEKNKVIYNYFNKPAKDYFFNKIVFIYNAKENTWKNAGELPGAGTAGSSSVMGNNFLMLINGELKPGLRTDVIYRAMWDNDKLTWLKNSQLPPSPGEQQQEGLAGAFSGYSHGVLLVGGGANFPGAKQNYTNGKFYSHEGINKKWRDEVYGLINGHWQYMGKMKQPLGYGVSVSYGDEVFLIGGENAKGKPVSSVTSFTMRDGNLLIK,not soluble
7,SLNEGQEMEEQFALLLETLKNQQMNEFRELFLALHIYEQGQFYQSLDEKDRQHLYNYLSPKELADMFDVIEEDNENMKDYLAEMRPSYAADMLAEMYTDNAVDLLNMLDKSQKAKYLSLLSSEEAGEIKELLHYEDETAGAIMTTEFVSIVANQTVRSAMYVLKNQADMAETIYYVYVVDQENHLVGVISLRDLIVNDDDTLIADILNERVISVHVGDDQEDVAQTIRDYDFLAVPVTDYDDHLLGIVTVDDIIDVIDDEAASDYSGLAGVDVEEVSENPLKAASK,soluble
8,SLNVNFFVTCIGDALKSRMARDSVLLLEKLGCRVNFPEKQGCCGQPAINSGYIKEAIPGMKNLIAALEDNDDPIISPAGSCTYAVKSYPTYLADEPEWASRAEKVAARMQDLTSFIVNTLGVVDVGASLQGRAVYHPSCSLARKLGVKDEPLTLLKNVRGLELLTFAEQDTCCGFGGTFSVKMAEISGEMVKEKVAHLMEVRPEYLIGADVSCLLNISGRLQREGQKVKVMHIAEVLMSR,soluble
9,SLNVPDMILYNGKITTLDPSQPEVSAIAITDGLITAVGGYELLNSATEKTKKIDLKRKRAIPGLNDSHIHVIRGGLHYNMELRWEGVPSIAIALEMLKEQARRTPAPQWVRVVGGWSEFQFKERRMPTLEEINAVSEDTPVFVLHLYDRALVNRAGLRALGYTKDTPDPPGCLIERDKRGNPTGLLIANPNASILYSSLGKAPILNFDDQINSTRHFMRELNRLGITSAIDAGGGFQNYPDDYRVVEHLAEKEQLTLRIAYNLFTQNPNHEYEDFASWAKIVSPGQGNDKYKMNGAGEMLVFSAADFEKFQMPRPELATMMEADLKKVISLLVENRWPFRLHATYDESITRFLNVFEEVNKEIPFNGLRWWFDHAETISDRSMERVKALNGGIAIQDRMAFQGEYFVDLYGKEAAKRTPPIYRMLDLGIPVGAGSDATRVSSYNPWVALYWMVAGKTIGGLSIYDKKNKLDRKVALELYSKGSAWFSGDEGKKGTLAVGQFADIAVLSADYFTVPEEEIKDLESLLTIMGGQVVYGNDEFKNLSPELPPASPDWSPTGVYGYGGANLAHTILSHNSHDNKLHSCSNPLHQHTHTVIGKDGTKWGIGCTCFAF,not soluble
10,SLQGKPTISVPEFKNDTNMSWWWWSGNTSRELADALSNELTSTGNFQVVERQNLGSVLSEQELAELGLTRPETSAQRGQLTGAQYIVLGRVTAYEEGVSSESGGNNFGLNLGLFSIGNSERQAKQEAYVAIDLRVVDSSTGEVVYARTVEGRATDTAASSANNVNILGIVNTGQDNQSTSRAPVGKALRAGLVEITDYLSCVMVEQDNCIQEYQDKDRQRRQKTKDTLILE,soluble
11,SLQKLQAQGVHHITLVGAGRQTSIDFWEGVLGMPFIFEQPNLDKASESHLYFDPGDGRLITVFTDESRTPQKRRTPTDPGCVHHIAFAVSRVTFLQAVARLDERGIKHSGVKDRGFMDSIYFEDPLGLLIELASYRFEPPAGFTHADVLMQAHRLRVGRGDYNIAEVHLADAIQVLVESSREG,soluble
12,SLRFYAACLASYNNGVLHGRWIDASSDTDEMQEEVSAMLRASRFPNVMVKCPNCEGRLELCTVCDGGSREVPSAEEWAIHDYDGLPSSLGEYPGLDKIAAFVELCEEHDMTGEDMAAIVSHFGSVEYAKEELGNNFVGVHESFRAYAEELADEMLSAHDIKADHPLSQYFDYEAYARDLRHSASAVELDEGVAVFCV,soluble
13,SLRITRIRLYKTDLPYVDGSYGWGAGNAITVARASVVVIDTDAGLQGCGEFTPCGENYMIAHSEGVDAFARLAAPQLLGQDPRQVARMERLMDHLVQGHGYAKAPFDAAFWDILGQATGQPVWMLLGGKLCDGAPMYRVAPQRSEAETRAELARHRAAGYRQFQIKVGADWQSDIDRIRACLPLLEPGEKAMADANQGWRVDNAIRLARATRDLDYILEQPCRSYEECQQVRRVADQPMKLDECVTGLHMAQRIVADRGAEICCLKISNLGGLSKARRTRDFLIDNRMPVVAEDSWGGEIASAAVAHFAASTPEEFLINSTDLMNYNTRSTGLGGPTVHQGRLYASDTPGLGVTPDFNSLGAPVADWALP,not soluble
14,SLSRPWQGKGCATLWASVDHRFQINLRGVIDLLSHHLYSSPDVYIRELLQNATDAIRARQHLEPGHEGSIRIELIEKQDGGPPTLLFSDDGIGLTEEEIHRFLATIGESSKREVLAERRGDFIGQFGIGLLSCFMVCDEVLVVTRSAQGGSPTMEWRGRHDGIYTVRPSGHPLERPGTQVFLVARPDAASLFTPQRVRELALHYGGLLPFPIHLTAGGYSGRINTEG,soluble
15,SLSSPLLPAPVCNPNKAIFTVDAKTTEILVANDKACGLLGYSSQDLIGQKLTQFFLRSDSDVVEALSEEHMEADGHAAVVFGTVVDIISRSGEKIPVSVWMKRMRQERRLCCVVVLEPVER,soluble
